Source: the nanobody polyreactivity screen of Harvey et al. (2022)

Test: yeast display, Sf9 membrane polyspecificity reagent, FACS + sequencing; frameworks hold sequencing errors
Outline: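 Nanobodies came from a synthetic yeast display library in Saccharomyces cerevisiae BJ5465, induced with galactose for 36–48 hours and stained for 1 hour at 4 °C with 10% biotinylated, detergent-solubilized Sf9 membrane reagent. Cells were enriched on streptavidin microbeads and then FACS-sorted, with low and high (top ~1%) gates set on anti-HA fluorescence for expression and streptavidin fluorescence for reagent binding. Each polyreactivity label reflects the gate a clone came from. Genes were amplified by colony PCR, sequenced by MiSeq 2 × 250 and filtered by CDR length.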

Row | Sequence | polyreactivity (PSR sort gate)
1 | QVQLVESGGGLVQAGGSLRLSCAASGRISVFYTMGWYRQAPGKERELVAVIRTSGGRTNYADSVKGRFTISRDNAKNTVYLQMNSLKPEDTAVYYCAARVVRYGYKYYYWGQGTQVTVSS | low polyreactivity
2 | QVQLVESGGGLVQAGGSLRLSCAASGLTFYPYAMGWYRQAPGKERELVAAITRSGTSTFYADSVKGRFTISRDNAKNTVYLQMNSLKPEETAVYYCAKGYFFVGTDWESYYWGQGTQVTVSS | low polyreactivity
3 | QVQLVESGGGLVQAGGSLRISCAASGSILTHYAMGWYRQAPGKERELVADINSGGGTSYADSVKGRFTISRDNAKNTVYLQMNSLKPEDTAVYYCAAAWWPYRYPTYYSQFDYWGQGTQVTVSS | low polyreactivity
4 | QVQLVESGGGLVQAGGSLRLSCAASGSTFVPYAMGWYRQAPGKERELVASISWRGGSTSYADSVKGRFTISRDNAKNTVYLQMNSLKPEDTAVYYCAKRRYWAPYDYWGQGTQVTVSS | high polyreactivity
5 | QVQLVESGGGLVQAGGSLRLSCAASGIIFPFYAMGWYRQAPGKERELVAAITSGDDTYYADSVKGRFTISRDNAKNTVYLQMNSLKPEDTAVYYCNKRLYIAGYWPQLYYIMDYWGQGTQVTVSS | low polyreactivity
6 | QVQLVESRGGLVQAGGSLRLSCAASGLIFWFNTMGWYRQAPGTERELVAAITSGGGSTYYADSVKGRFTISRDIAKNTVYLQKNSLKPEDTAVYYCNAGAGRWRARQWHDYWGQGTQVTVSS | low polyreactivity
7 | QDQLEESGGGLVQAGASLRLSCAAYGSIFSGYAMGRYRQATGKERELVAAITWRAASTYYADSVKGRFTISRDNAKTTVYLQMNSLKPEDTEVYYCAKEGWPKPAFYYWGLGTQVTVSS | low polyreactivity
8 | QVQLVESGAGLVQAGGSLRLSCAASGGTFLYYAMGWYRQAPGKERELVAVINSNGGSTYYADSVKGRFTISRDNAKNTVYLQMNSLKPEDTAVYYCAADYQSYVYIGYGYWGQGTQVTVSS | low polyreactivity
9 | QVQRVESGGGLVQAGGSLRLSCAGSGSTFAQNGMGWYRPAPGKERELVAAIRWNGGSTYYADSVKGRFTISRDNAKNTVYLQMNSLKPEDTAVYYCAARHPLYRVQHEDWGQGTQVTVSS | low polyreactivity
10 | QVQLGESGGGLVQAGGSLRLSCAASGRTFHGYAMGWYRQAPGKERELVARINWSDGRTYYADSVKGRFTISRDNAKNTVYLQMNSLKPEDTAVYYCAADKTVSYAPAWYYYWGQGTQVTVSS | low polyreactivity
11 | QVQLVESGGGLVQAGGSLRLSCAASGSIFVLYAMGWYRQAPGKEREFVAAISWSGDSTYYADSVKGRFTISRDNAKNTVFLQMNSLKPEDTAVYYCAVYGYRTKYGYWGQGTQVTVSS | high polyreactivity
12 | QVQLVESGGGLVQAGGSLRLSCAASGSTFYDYAMGWYRQAPGKERELVAAITSGGSTDYADSVKGRFTISRDNAKNTVYLQMNSLKPEDTAVYYCATDTDSNYISHQFVWYDYWGQGTQVTVSS | low polyreactivity
13 | QVQLVESGGGLVQAGGSLRLSCAASGRIFETNAMGWYRQAPGKERELVAVITRGGSTYYADSVKGSFTISRDNAKNTVYLQMNSLKPEVTALYYCNVRRLYGYGYYYWGQGTQVTVSW | low polyreactivity
14 | QVQLVESGGGLVQAGGSLRLICAASGIIFDGNAMGWYRQAPGKERELVASITSDSSTNYADSVKGRFTISRDNAKNTVYLQMNSLKPEDTAVYYCAADHWIAPRRDYWGQGTQVTVSS | low polyreactivity
15 | QVQLVESGGGLFQAGGSLRLSCAASGFIFRPYGMGWYRQAPGKERELVAAISWSGDRTYYADSVKGRFTISRDNAKNTVYLQMNSLKPEDTAVYYCAADGVTRDYDYWGQGNQVTVSS | low polyreactivity
16 | QVQLVESGGALVQAGGSLRLSCAASGNTFQRYTMGWYRQAPGKERELVAAITWSGGNTYYADSVKGRFTISRDNAKNSVYLQMNSLKPEDTAVYDCNADYPTTAYDYWGQGTQVTVSS | low polyreactivity
17 | QVQLVESGVRLVQSGGSLRLSCASSGFTIWRYAMGWYRQAPGKERELVAAISRSGTRTYYADSVKGRFTISRDNAKNTVYLQMNSLKPEDTAVYYCAADGLSLAYEHDYWGQGTQVTVSS | high polyreactivity
18 | QVQLVESGGGLVQAGGSLRLSCAASGSIFYDKAMGRYRQAPGKEREFVAAISLRTGRTYYADSVKGRFTISRDNAKNTVYLQMNSLKPEDTAVYYCAARGYYGPKYYYWGQGTQVTVSS | high polyreactivity
19 | QVQLVESAGGLVQAGGSLRLSCAASGFTFYFYAMGWSRQAPGKERELVAAISRSGSRTYYADSVKGRFTISRDNAKNTVYLQMNSLKPEDTAVYYCARVRPRGLYFVLHYDYWGQGTQVTVSS | high polyreactivity
20 | QVQLVESGGGLVQAGGSLRLSCAASGRIFRPYAMGWYRQAPGKERELVAAISVSGVITYYADSVKGRFTISRDNAKNTVYLQMISLKPEDTAVYYCATDYTPRRWGRLYDYWGQGTQVTVSS | low polyreactivity
21 | QVQLVESGGGLVQAGGSLRVSCAASGSTFWSYAMGGYRQAPGKARELVAGITQSGGSTYYADSVKGRFTISRDTAKHTLYLQMNSLQPEDTAVYDCAKDGRVSGDFDYWGQGTQGTVSS | low polyreactivity
22 | QVQLVESGGGLVQAGGSLRLSCAASGSTFIYYTMGWYRQAPGKERELVAAISWRGGSTYYADSVKGRFTIARDNAKNTVYLQMNSLKPEDTAVYYCATGYLYFTSYRYNYWGQGTQVTVSS | low polyreactivity
23 | QVQLVESGGGLVQAGGSLRLSCAASGITSSYAMGWYRQAPGKERELVAAISRGGSTYYADSVKGRFTISRDNAKNTVYLQMNSLKPEDTAVYYCNKRRYPYGWGQGTQVTVSS | high polyreactivity
24 | QVQLVESGGGLVQAGGSLRLSCAASGITFWLYAMGWYRQAPGKERELVAAISYSGGSTYYADSVKGRFTISRDNAKNTVYLQMNSLKPEETEVYYCNTGSRYRPNRRYGYWGQGTQVTVSS | high polyreactivity
25 | QVQLVESGGGLVQAGGSLRLICAASGSIFVNNAMGWYRQAPGKERELVAAISRSGGSTYYADSVKGRFTISRDNAKNTVYLQMNSLKPEDTAVYYCATVHRSSTPPEFNYWGQGTQVTVSS | high polyreactivity
26 | QVQLVESGGGLVQAGGSLRLSCASSGLTLQYYAMGWYRQAPGKERELVAAITYSGGSTYYADSVKGRFTISRDNAKNTVYLQRNSLKPEDTGVYYCAKVPVRSGGTLYDYWGQGTQVTVSS | low polyreactivity
27 | QVQLVESGGRLVQAGGSLRLSSAASGRIFASNAMGWYRQAPGKERELVAAIDQGGGSTYYADSVKGRFTISRDNAKNTVYLQMNSLKPEDTAVYYCAADYITAYPRLYNYWGQGTQVTVSS | low polyreactivity
28 | QVQLVESGGGLVQAGGSLRLSCAAYGGFFWYYTMGRYRQAPGKEREFVATITKRGGRTYYADSVKGRFTISRDNAKITVYLQMNSLKPEDTAVYFCNALGGPKSVRFDYWGQGTQVTVSS | high polyreactivity
29 | QVQLVESGGGLVQAGGSLRLSCAAYGGTFYRYAMGWYRQAPGKERELVAVISKRGGTTYYADSVKGRFTISRDNAKNTVYLQMNSLKPEDTAVYYCADRPYYWGQGTQVTVSS | high polyreactivity
30 | QVQLVESGRGLVQAGGSLRLSCAPSGLNFVRYAMGWYRQAPGKERELVARITSRGTSTYYADSVKGRFTISRDNAKNTVYLQMNSLKPEDTAVYYCIKFRSFRDKTRYDYWGQGTQVTVSS | low polyreactivity
